This is an account of results in patent US20230014151A1, “COMBINATION ANTIVIRAL THERAPY FOR MEASLES” (The Trustees of Columbia University in the City of New York, priority 2019, published 2023).

As a reminder, the pIC50 is −log10 of the IC50, conventionally taken in molar units. For orientation: IC90 means the concentration needed for an effect of 90%.

pIC50: −log10 of the molar value. Read-outs that look alike come from different tables or passages of the source. A value given as a limit tells only on which side of the number the result lay.

The target in test [1] is measles virus (MeV) fusion protein F, wild type, expressed on cells (measles virus) (UniProt Q786F3). Briefly: cell-based or functional assay.
The target of test [2] is viral glycoproteins (H and F); Nectin-4 (Measles virus, UniProt Q786F3). Briefly: beta-galactosidase complementation-based fusion assay, Nectin-4 target cells.

With “FIP (no GSGSG), Monomer N-Maleimide (peptide)”, in test [1], the IC50, beta-galactosidase complementation-based fusion assay, Nectin-4 target cells is more than 1 µM and the IC90, beta-galactosidase complementation-based fusion assay, Nectin-4 target cells was more than 1 µM.
Turning to FIP-chol (no GSGSG) (peptide), in test [1], the IC50, beta-galactosidase complementation-based fusion assay, Nectin-4 target cells is more than 1 µM and the IC90, beta-galactosidase complementation-based fusion assay, Nectin-4 target cells was more than 1 µM.
Take FIP-peg4-chol (no GSGSG) (peptide): in test [1], the IC50, beta-galactosidase complementation-based fusion assay, Nectin-4 target cells was more than 0.7 µM and the IC90, beta-galactosidase complementation-based fusion assay, Nectin-4 target cells is more than 1 µM.
As to “FIP-HRC450-485-peg4-chol (no GSGSG) (peptide)”, in test [1], the IC50, beta-galactosidase complementation-based fusion assay, Nectin-4 target cells stood at 0.707 µM and the IC90, beta-galactosidase complementation-based fusion assay, Nectin-4 target cells is 0.825 µM.
Regarding “FIP-HRC450-485-chol (no GSGSG) (peptide)”, in test [1], the IC50, beta-galactosidase complementation-based fusion assay, Nectin-4 target cells was 0.0859 µM and the IC90, beta-galactosidase complementation-based fusion assay, Nectin-4 target cells was found to be 0.54 µM.
The matching figures for FIP (peptide): 9.72 µM and more than 10 µM.
The matching figures for FIP-HRC450-485 (no GSGSG) (peptide): 2.77 µM and 6.37 µM.
Consider `CC[C@H](C)[C@H](NC(=O)[C@H](C)NC(=O)[C@H](CC(N)=O)NC(=O)CNC(=O)[C@H](CC(C)C)NC(=O)[C@H](CC(N)=O)NC(=O)[C@@H](NC(=O)CNC(=O)[C@@H](NC(=O)[C@H](CC(=O)O)NC(=O)[C@H](CC(C)C)NC(=O)[C@H](CCCNC(=N)N)NC(=O)[C@H](CCC(=O)O)NC(=O)[C@H](CC(C)C)NC(=O)[C@H](CO)NC(=O)[C@@H](NC(=O)[C@@H]1CCCN1C(=O)[C@@H]1CCCN1C(C)=O)[C@@H](C)CC)C(C)C)[C@@H](C)O)C(=O)N[C@@H](C)C(=O)N[C@@H](CCCCN)C(=O)N[C@@H](CC(C)C)C(=O)N[C@@H](CCC(=O)O)C(=O)N[C@@H](CC(=O)O)C(=O)N[C@@H](C)C(=O)N[C@@H](CCCCN)C(=O)N[C@@H](CCC(=O)O)C(=O)N[C@@H](CC(C)C)C(=O)N[C@@H](CC(C)C)C(=O)N[C@@H](CCC(=O)O)C(=O)N[C@@H](CO)C(=O)N[C@@H](CO)C(=O)N[C@@H](CC(=O)O)C(=O)N[C@@H](CCC(N)=O)C(=O)N[C@H](C(=O)N[C@@H](CC(C)C)C(=O)N[C@@H](CCCNC(=N)N)C(=O)NCC(=O)N[C@@H](CO)C(=O)NCC(=O)N[C@@H](CO)C(=O)NCC(=O)N[C@@H](CSC1CC(=O)N(CCC(=O)NCCOCCOCCOCCOCCOCCOCCOCCOCCOCCOCCOCCNC(=O)CCN2C(=O)CC(SC[C@H](NC(=O)CNC(=O)[C@H](CO)NC(=O)CNC(=O)[C@H](CO)NC(=O)CNC(=O)[C@H](CCCNC(=N)N)NC(=O)[C@H](CC(C)C)NC(=O)[C@@H](NC(=O)[C@H](CCC(N)=O)NC(=O)[C@H](CC(=O)O)NC(=O)[C@H](CO)NC(=O)[C@H](CO)NC(=O)[C@H](CCC(=O)O)NC(=O)[C@H](CC(C)C)NC(=O)[C@H](CC(C)C)NC(=O)[C@H](CCC(=O)O)NC(=O)[C@H](CCCCN)NC(=O)[C@H](C)NC(=O)[C@H](CC(=O)O)NC(=O)[C@H](CCC(=O)O)NC(=O)[C@H](CC(C)C)NC(=O)[C@H](CCCCN)NC(=O)[C@H](C)NC(=O)[C@@H](NC(=O)[C@H](C)NC(=O)[C@H](CC(N)=O)NC(=O)CNC(=O)[C@H](CC(C)C)NC(=O)[C@H](CC(N)=O)NC(=O)[C@@H](NC(=O)CNC(=O)[C@@H](NC(=O)[C@H](CC(=O)O)NC(=O)[C@H](CC(C)C)NC(=O)[C@H](CCCNC(=N)N)NC(=O)[C@H](CCC(=O)O)NC(=O)[C@H](CC(C)C)NC(=O)[C@H](CO)NC(=O)[C@@H](NC(=O)[C@@H]3CCCN3C(=O)[C@@H]3CCCN3C(C)=O)[C@@H](C)CC)C(C)C)[C@@H](C)O)[C@@H](C)CC)[C@@H](C)CC)C(=O)O)C2=O)C1=O)C(=O)O)[C@@H](C)CC` (stereo partly drawn) [[HRC450-485]2-peg11], for which the pIC50 in test [2] was less than 5.40; in test [2] (read-out: Nectin4 IC50, Table 3 (extended version)), less than 5.40. Moreover, the IC90 in test [2] and in test [2] (read-out: Nectin4 IC90) was more than 10 µM in each case.
